For this test, the target named is agalacto-IgG (human IgG treated with streptococcal beta-galactosidase and sialidase, Preparation Example 1). The test is described as follows: sandwich ELISA of Example 3, agalacto-IgG 2.5 µg/ml, competitor GlcNAc 50 mM (a monosaccharide). (ELISA stands for enzyme-linked immunosorbent assay.)

Regarding “Psathyrella velutina lectin (PVL), purified from Psathyrella velutina fruiting body”, the percent inhibition in the presence of 50 mM GlcNAc came to 50%.
